From publication PMC4441544

Target: voltage-dependent anion channel (VDAC) (rat (endogenous in rat cortex)) (UniProt Q9Z2L0)
Assay: co-IP

Chain of UniProt Q9Z2L0 (Q9Z2L0 whole entry): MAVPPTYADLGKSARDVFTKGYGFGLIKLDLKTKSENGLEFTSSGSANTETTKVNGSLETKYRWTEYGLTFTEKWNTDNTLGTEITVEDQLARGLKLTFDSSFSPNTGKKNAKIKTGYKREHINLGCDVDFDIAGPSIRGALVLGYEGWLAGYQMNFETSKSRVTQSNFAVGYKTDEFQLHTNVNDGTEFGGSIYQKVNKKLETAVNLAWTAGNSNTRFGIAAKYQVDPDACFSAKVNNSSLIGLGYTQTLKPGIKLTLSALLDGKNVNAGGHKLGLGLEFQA

percent reduction of HK1-VDAC binding at 100 µM peptide (lower VDAC band, VDAC3): 66.1%
percent reduction of HK1-VDAC binding at 100 µM peptide (total VDAC): 50.4%
Substance: Hexokinase II VDAC binding domain peptide (fused to Antennapedia homeo-domain)
